Assay results: patent publication US10729634B2, “Sex hormone-binding globulin for use as a medicament” (FUNDACIÓ HOSPITAL UNIVERSITARI VALL D'HEBRON—INSTITUT DE …, priority 2013, dated 2020)

Assays:
[1] = tested on: HepG2 hepatoblastoma cells; experiment: Lipolysis assay (glycerol release) in HepG2 cells; assay type: cell-based, human; settings: SHBG 2.5 nM, 10 nM and 50 nM, 16h incubation, vs vehicle control
Procedure: Cell culture experiments. Cell culture reagents were from Life Technologies Inc (Invitrogen SA). HepG2 hepatoblastoma cells (catalog no. HB-8065; ATCC) were maintained in DMEM supplemented with 10% foetal bovine serum (FBS) and antibiotics. For experiments, HepG2 cells were cultured to 60%-80% confluence, cells were washed and incubated with Lipolysis Assay Buffer containing vehicle (control—C), Isoproterenol (positive control—ISO, 3 μM) or SHBG at different final cell culture concentrations (2.5 nM, 10 nM and 50 nM). SHBG was from native human protein purified from healthy human serums (it included the amino acid sequence SEQ ID NO: 1). After 16h incubation, media was collected and glycerol concentration was assessed using a Glycerol Detection Kit (Zenbio).
The data are depicted in FIG. 1, wherein the bars indicate the levels of glycerol (Gly) for each assayed sample. Glycerol is a direct measure of the lipolysis level, since is the product obtained when triglycerides are decomposed chemically or enzymatically to glycerol and fatty acids.

[2] = tested on: human SHBG transgenic mice (shbg); experiment: High fructose diet in human SHBG transgenic mice vs wild-type; assay type: in vivo; settings: high fructose diet (76% fructose) for 8 weeks, shbg vs WT mice
Excerpt: For this experiment there were used C57BL/6 mice (WT, controls) and human SHBG transgenic mice (shbg) but not obese.
SHBG transgenic mice were obtained as disclosed above and according to Jänne et al, “Human Sex-Hormone-Binding Globulin Gen Expression in Transgenic Mice”, Molecular Endocrinology—1998, Vol. No. 12 (1), pp: 123-136 (supra).
Wild-type (WT) mice and shbg mice were fed with a high fructose diet. (76% fructose) for 8 weeks. Afterwards, they were sacrificed and liver biopsies were analyzed to see total triglyceride (TG) accumulation in both animal types.
Total triglyceride detection was measured using a triglyceride assay kit (Cat. #K622-100 BioVision) following the manufacturer's instructions.
As in Example 3.4 and following the same protocol, lipogenesis was studied by determining the mRNA and protein levels of acetyl-CoA carboxylase (ACC) and fatty acid synthase (FAS). Data from this analysis are illustrated in FIG. 18, panels (C) and (D).

[3] = tested on: human SHBG transgenic mice (shbg); experiment: High lipid diet in human SHBG transgenic mice vs wild-type; assay type: in vivo; settings: shbg vs WT mice
Procedure: Wild-type (WT) mice and shbg-mice as in Example 5 were fed with a high lipid diet (50% lipids, from which 46% pig butter and 4% soybean fat) for 8 weeks.
Weight increase along weeks was followed and plotted in FIG. 19 (A), wherein the weight in grams of mice is plotted per week after consumption of the fat diet.
Once mice were sacrificed, visceral adipose tissue (VAT in grams) was analyzed in both animal types. […] VAT was determined as follows: all visceral fat was removed from the animals and it was weighed in a precision balance.

HepG2 cells = experiment: SHBG over-expression (pCMV-SHBG) in stably transfected HepG2 cells; assay type: cell-based, human; settings: SHBG over-expressed (pCMV-SHBG) vs pCMV control
Excerpt: In order to elucidate a possible mechanism of action of the SHBG, HepG2 cells (catalog no. HB-8065; ATCC) maintained in DMEM supplemented with 10% FBS and antibiotics) were stably transfected with a vector expressing SHBG (pCMV-SHBG). The vector pCMV-SHBG and the control (pCMV-empty) were the ones used and mentioned in several publications, being the first in Bocchinfuso W P et al. “Expression and differential glycosylation of human sex hormone-binding globulin by mammalian cell lines”, Mol Endocrinol-1991, Vol. No. 5(11)., pp. 1723-1729.
From all panels in FIG. 20 it can be deduced that SHBG regulates hepatocyte lipid content by modulating ACC levels in HepG2 cells. (a) SHBG mRNA levels were determined in relation to 18S RNA in pCMV and pCMV-SHBG stably transfected HepG2 cells (FIG. 20 a). SHBG protein accumulation in the medium was measured using an ELISA in pCMV and pCMV-SHBG stably transfected HepG2 cells (FIG. 20 b). ACC mRNA levels were determined in relation to 18S mRNA in pCMV and pCMV-SHBG stably transfected HepG2 cells (FIG. 20 c). SHBG mRNA levels were determined in relation to 18S RNA in shControl and shSHBG stably transfected HepG2 cells (FIG. 20 d). SHBG protein accumulation in the medium was measured using an ELISA in shControl and shSHBG stably transfected HepG2 cells (FIG. 20 e). […]

B1: SHBG: native human protein purified from healthy human serums (included SEQ ID NO: 1); in mice and HepG2 expressed from human shbg transgene/vector (protein, listed as Homo sapiens)
chain: MESRGPLATSRLLLLLLLLLLRHTRQGWALRPVLPTQSAHDPPAVHLSNGPGQEPIAVMTFDLTKITKTSSSFEVRTWDPEGVIFYGDTNPKDDWFMLGLRDGRPEIQLHNHWAQLTVGAGPRLDDGRWHQVEVKMEGDSVLLEVDGEEVLRLRQVSGPLTSKRHPIMRIALGGLLFPASNLRLPLVPALDGCLRRDSWLDKQAEISASAPTSLRSCDVESNPGIFLPPGTQAEFNLRDIPQPHAEPWAFSLDLGLKQAAGSGHLLALGTPENPSWLSLHLQDQKVVLSSGSGPGLDLPLVLGLPLQLKLSMSRVVLSQGSKMKALALPPLGLAPLLNLWAKPQGRLFLGALPGEDSSTSFCLNGLWAQGQRLDVDQALNRSHEIWTHSCPQSPGNGTDASH
[1]
  lipolysis (glycerol concentration in medium): increased the lipolysis in HepG2 cells (in a dose-dependent manner)
[2]
  fatty liver disease: Protects Against Fatty Liver Disease
  triglyceride amount in liver: higher in WT mice than in the transgenic ones (shbg)
[3]; high lipid diet (50% lipids) for 8 weeks
  visceral adipose tissue (VAT): wild-type mice had a greater visceral adipose tissue than transgenic animals
[3]; high lipid diet (50% lipids)
  body weight along weeks: always a lower weight than wild-type mice
  obesity: Protects Against Obesity
HepG2 cells
  ACC expression: the expression of ACC is reduced
  total TG content: the total TG is reduced
